Test [1] has as its target human PD-L1 on cells (CHO cells stably expressing human PD-L1; MDAMB231, HCC827, H226, doxycycline-treated A549-iPDL1 cells and their tumors) (human) (UniProt Q9NZQ7). The test is described as follows: flow cytometry on Cho-hPD-L1 and MDAMB231 cells; competitors Cy5-AtzMab, Cy5-AveMab, Cy5-DurMab (ends not tied to one mAb).
The target in test [2] is recombinant human PD-L1(B7-H1)-His-tag protein (catalog #9049-B7, R&D systems) (human) (UniProt Q9NZQ7). The test is described as follows: FRET competitive inhibition of PD-L1 binding to PD-1.
recombinant human PD-L1(B7-H1)-His-tag protein (catalog #9049-B7, R&D systems) (human), sequence (Q9NZQ7 19-239 limits assumed): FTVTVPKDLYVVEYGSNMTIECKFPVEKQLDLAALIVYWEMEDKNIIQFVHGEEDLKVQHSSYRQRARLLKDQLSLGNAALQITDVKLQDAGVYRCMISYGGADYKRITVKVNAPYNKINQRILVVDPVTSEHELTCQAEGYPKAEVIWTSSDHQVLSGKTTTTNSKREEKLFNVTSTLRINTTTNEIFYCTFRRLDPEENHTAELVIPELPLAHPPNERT
The target in test [3] is human PD-L1 on cells (CHO cells stably expressing human PD-L1; MDAMB231, HCC827, H226, doxycycline-treated A549-iPDL1 cells and their tumors) (human) (UniProt Q9NZQ7). The experiment in a line: flow cytometry, in vitro binding; competitor Cy5-conjugated AtzMab.
human PD-L1 on cells (CHO cells stably expressing human PD-L1; MDAMB231, HCC827, H226, doxycycline-treated A549-iPDL1 cells and their tumors) (human), sequence (Q9NZQ7 19-290): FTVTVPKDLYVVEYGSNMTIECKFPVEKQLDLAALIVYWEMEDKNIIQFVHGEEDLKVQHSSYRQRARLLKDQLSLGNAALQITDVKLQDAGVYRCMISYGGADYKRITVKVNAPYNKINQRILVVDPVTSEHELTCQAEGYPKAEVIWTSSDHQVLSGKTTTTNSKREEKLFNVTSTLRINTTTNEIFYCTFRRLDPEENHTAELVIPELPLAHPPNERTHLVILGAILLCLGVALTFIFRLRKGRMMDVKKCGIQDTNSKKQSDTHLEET
Test [4] deals with recombinant human PD-L1(B7-H1)-His-tag protein (catalog #9049-B7, R&D systems) (human) (UniProt Q9NZQ7). The experiment in a line: FRET competitive inhibition of PD-L1-His-tag (80 nM) binding to PD-1-Ig (20 nM).
For test [5] the target is unchanged. The experiment in a line: FRET competitive inhibition of PD-L1-His-tag binding to PD-1-Ig, Cheng-Prusoff.
The target of test [6] is human PD-L1 on cells (CHO cells stably expressing human PD-L1; MDAMB231, HCC827, H226, doxycycline-treated A549-iPDL1 cells and their tumors) (human) (UniProt Q9NZQ7). The test is described as follows: cell-based or functional assay.
For test [7] the target is unchanged. The test is described as follows: flow cytometry on hPD-L1 cells, serial dilutions of WL12; competitor Cy5-AtzMab.
The target is the same in test [8]. The test is described as follows: hPD-L1 cells, 1 uM blocking dose of WL12; competitor [^64Cu]WL12.
The target is the same in test [9]. The experiment in a line: flow cytometry on hPD-L1 cells, serial dilutions of WL12; competitor BD-MIH1-PE.
The target is the same in test [10]. The experiment in a line: radiotracer on hPD-L1 cells, 1 h, gamma counting.

This note sets out measurements from patent US20190314531A1.

In the case of WL12 (unmodified PD-L1 binding peptide), in test [1], the inhibitory concentrations amounted to 5 nM. In addition, the IC50 in test [2] is 22 nM; in [3], 37.8 nM; in test [4], 20.3 nM; in test [7], 2.5 nM; in test [9], 37.8 nM. For the same substance, the Ki in [5] is 1.1 nM. In test [6], this substance came in with a reduction in % ID/g of [^64Cu]WL12 in hPD-L1 tumors on co-injection of excess WL12 (50 ug, 2 mg/kg), 2 h of more than 75%. The same substance gave a reduction in bound [^64Cu]WL12 in test [8] of more than 95%.

WL12-DOTAGA (WL12D) (peptide): the values for the concentration for half-maximal inhibition (IC50) in test [2] and in test [4] were 23 nM and 22.2 nM, respectively. Also, the Ki in test [5] was determined as 10.4 nM.

Take [^64Cu]WL12 (peptide): the uptake of the incubated dose in test [10] is more than 50%. Moreover, in test [6], the accumulation of [^64Cu]WL12 in A549-iPDL1 tumors after 72 h doxycycline against A549 control tumors was 65% and the radioactivity uptake in hPD-L1 tumors at 1 h, percentage of injected dose/g came out at 14.9 % ID/g.

Take “WL12-Cu^2+ complex (copper complex of WL12D) (peptide)”: the half-inhibitory concentration (IC50) was 2.9 nM in test [2] and 2.97 nM in test [4]. Also, the Ki in test [5] was 1.38 nM.
